Where “and” joins values, the source holds several entries; their conditions need not be identical. Equal values may be shown once.
B1: Parvalbumin alpha, P02625 (parent)
chain: MSMTDLLSAEDIKKAIGAFTAADSFDHKKFFQMVGLKKKSADDVKKVFHILDKDKSGFIEEDELGSILKGFSSDARDLSAKETKTLMAAGDKDGDGKIGVEEFSTLVAES

Variants of: B1
Settings: Rattus norvegicus, pH 7.4, Thermal, DSC, sodium phosphate 10 mM, NaCl 0.20 M, structure 1RTP, whole UniProt chain shown

Row | Variant | ddG of mutation (higher = less stable) (45.8 °C) | heat capacity change of unfolding (45.8 °C) | Tm | change of melting temperature, mutant - wild type (higher = more stable) | unfolding enthalpy (calorimetric) | ddG of mutation (higher = less stable) (44.2 °C) | heat capacity change of unfolding (44.2 °C)
1 | A22P K81S | -0.45 kcal/mol | 1.4 kcal/mol/K | 47.8 °C | 2 °C | 75 kcal/mol | – | –
2 | H27P | -1.25 kcal/mol | 1.4 kcal/mol/K | 51.4 °C | 5.6 °C | 80 kcal/mol | – | –
3 | A22P | 1.92 kcal/mol | 1.4 kcal/mol/K | – | – | 52 kcal/mol and 63 kcal/mol | -0.95 kcal/mol | 1.4 kcal/mol/K
4 | K81S | 0.29 kcal/mol | 1.4 kcal/mol/K | 44.5 °C | -1.3 °C | 71 kcal/mol | – | –
5 | A22P H27P | 0.5 kcal/mol | 1.4 kcal/mol/K | 43.6 °C | -2.2 °C | 62 kcal/mol | – | –

Reference: FireProtDB (doi:10.1021/bi034721x)
